Test [1] concerns the target T1, RSV G protein of strain A (Ga protein) (respiratory syncytial virus, strain A …, UniProt P03423 66-298).
T1 construct: also called RSV-Ga; RSV-GA2 protein
T1 sequence (looked up): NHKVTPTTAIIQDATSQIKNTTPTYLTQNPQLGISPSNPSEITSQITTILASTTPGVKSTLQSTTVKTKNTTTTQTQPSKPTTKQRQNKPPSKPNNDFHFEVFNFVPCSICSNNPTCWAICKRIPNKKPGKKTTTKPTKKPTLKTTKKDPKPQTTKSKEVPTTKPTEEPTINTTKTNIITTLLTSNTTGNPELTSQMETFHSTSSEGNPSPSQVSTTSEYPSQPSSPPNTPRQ
In words: Biacore, antibody on chip, recombinant Ga in flow. On the technique in general: SPR reads the build-up and loss of mass on a sensor chip optically.

Test [2] addresses T2, Ga derived 12-mer peptide SKPNNDFHFEVF (SEQ ID NO:8) (respiratory syncytial virus, strain A …).
T2 construct: Peptide on an array of overlapping 12-mers
T2 peptide: SKPNNDFHFEVF
In words: peptide array of overlapping 12-mer Ga peptides probed with 131-2G at 1 ug/ml, chemiluminescence.

Test [3] has as its target T1, RSV G protein of strain A (Ga protein). In words: Biacore, ratio of on-rate to off-rate; Biacore, not the ELISA midpoint (4 nM).
The target in test [4] is T3, RSV G protein of strain B (Gb protein) (respiratory syncytial virus, strain B).
T3 construct: also called RSV-Gb; G protein from strain B
Nature of the test: Biacore, antibody on chip, recombinant Gb in flow.

For test [5], the target named is T4, G protein on live RSV virus coated on the plate (strain not stated) (respiratory syncytial virus).
T4 construct: whole, on cells; also called live virus; virus particles
In words: ELISA on live RSV virus coated on the plate, anti-human Fc-HRP detection.

The text below walks through data of patent publication US20100285022A1 (TRELLIS RSV, published 2010).

B1: human monoclonal antibody 3G12 (antibody, V domains shown)
VH: QLQLQESGPGLVKPSETLSLTCTVSGGSISSSNYYWGWIRQPPGKGLEWIASIHDSGSIYYNPSLRSRVTISVDTSKNQFSLKLSSVTAADTAVYYCARHLVWFGELRNNWFDPWGQGTLVTVAS
VL: EIVMTQSPATLSVSPGERATLSCRASQSVNSNLAWYQHKPGQAPRLLIYGASTRATGIPARFSGSGSGTDFTLTISSLQSEDFAVYYCQQYNNWPLFGPGTKVDLK
What is called Kd is a measure of binding affinity in units of concentration. For B1, the Kd in test [1] stood at 0.579 nM.

B2: murine monoclonal antibody 131-2G (antibody, V domains shown)
VH: EVQLQQSGPELVKPGTSVKISCKASGYSFTGFTMNWVKQSHGKNLEWFGLINPFNGNTGYNQKFKGKATLTVDKSSSTAFMELLSLTSEDSAVYYCARSGKSYDYEAWFTYWGQGTLVTVSA
VL: DIVMTQTTLSLPVSLGNQASISCRSSQTIVHTNGNTYLEWYLQKPGQSPKLLIYKVSNRFSGVPDRFSGSGSGTDFILNISRVEAEDLGVYYCFQGSHVPFTFGSGTKLEIKR
notes: also called mAb 1312G
Consider B2, for which, in test [2], the binding result is “binds”. For the same molecule, the Kd in test [3] turned out to be 7 nM.

B3: human monoclonal antibody 1D4 (antibody, V domains shown)
VH: QVQLLQSGAELKKPGASVKVSCQASIDTFSTYYIHWVRQAPGQGLEWLGVINPSGGSTTYAQKFQDRITLTTDTSTRTVYMDLSSLRSEDTAVYYCARVHKGRAEQWQLLHGHFDLWGRGSLVTVSS
VL: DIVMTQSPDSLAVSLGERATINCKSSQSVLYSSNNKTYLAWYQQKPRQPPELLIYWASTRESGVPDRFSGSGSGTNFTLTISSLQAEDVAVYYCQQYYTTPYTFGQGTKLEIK
On to B3, for which the Kd in test [4] was 0.052 nM; in test [1], 0.23 nM.

B4: human monoclonal antibody 3D3 (antibody, V domains shown)
VH: EEQLVESGGGLVQPGRSLRLSCVGSGLRFEEHAMHWVRQAPGRGLEWVSGISWNSGSVGYADSVKGRFTTSRDNAKDILFLEMNTLRSEDTALYFCAIMVATTKNDFHYYKDVWGKGTTVTVSS
VL: QIVLTQSPATLSLSPGERATLSCKASQSVSNHLAWYQQKPGQAPRLLIYETSNRATGIPPRFSGSGSGTDFTLTISSLEPEDFAVYYCQQRNNWYTFGQGTKLEIK
What is called EC50 (read off the curve) is the concentration needed to bring the measured effect to its halfway point. Higher therefore signals a need for much substance. Take B4: the Kd in test [1] was determined as 0.0011 nM. For the same molecule, in test [5], the “EC50 (read off the curve)” value was about 100 ng/mL.

B5: human monoclonal antibody 5D8 (antibody, V domains shown)
VH: QAQLVESGGGVVQPGRSLRLSCAASGFTFSYSGMHWVRQAPGRGLEWLAVISYDGNKMYYADSVKGRFTISRDNSKMTLYLQMNSLRREDTAVYYCAKDGLDYGGDLVYYGMDVWGNGTTVTVSS
VL: SYELTQPPSVSVSPGQTGRITCTGSEASGDALASRYAYWYQHKSGQAPVVLIYKDTERPSGISERFSGSSSGTTVTLIISGVLAEDEADYYCKTSVRNGTSWVFGTGTMLTVL
Consider B5, for which, in test [1], the Kd came to 4.39 nM.

B6: human monoclonal antibody 1G8 (antibody, V domains shown)
VH: QLQLQESGPGLVKPSETLSLTCTVSGDSITSGQYYWAWIRQAPGKGLEWIGSIHYSGSTYQNPSLKSRLTISVDTSRDQISMKLSSVTVAESAVYYCAKQQLSLSPVENWFDPWGQGTLVTVSS
VL: EIVVTQSPVTLSVSPGESAALSCRASRSVGSRLAWYQQKPGQPPRLLIFAASTRATGIPARFSGSGSGTDFTLIISGLQSEDYAVYYCQQYKEWPLFTFGPGTTVDSK
For the molecule B6, the equilibrium dissociation constant (Kd) in test [1] worked out at 0.024 nM. In test [5], the “EC50 (read off the curve)” value is about 300 ng/mL.
